Measured values from article PMC3323580, “Lack of Evidence from Studies of Soluble Protein Fragments that Knops Blood Group Polymorphisms in Complement Receptor-Type 1 Are Driven by Malaria” (PLoS ONE, 2012).

Molecular target: T1, C1q, classical complement pathway protein (UniProt P02745 23-245; P02746 28-253; P02747 29-245)
T1 construct: Amine-coupled to a CM5 chip for SPR; in solution (140 ng/ml) for ELISA; source: bought: Complement Technology (Texas)
Experiment: SPR; C3b (1620 RU), C4b (1518 RU) and C1q (2125 RU) amine-coupled on three flow cells of one CM5 chip; CR1 fragments flowed at 30 µl/min, Biacore T100, 25°C, HBS-EP pH 7.4 (10 mM Hepes, 150 mM saline, 3 mM EDTA, 0.05% polysorbate 20); steady-state fit, one-to-one model; duplicates
Conditions: both partners purified

T1 sequence (P02745 23-245, chain 1 of 3): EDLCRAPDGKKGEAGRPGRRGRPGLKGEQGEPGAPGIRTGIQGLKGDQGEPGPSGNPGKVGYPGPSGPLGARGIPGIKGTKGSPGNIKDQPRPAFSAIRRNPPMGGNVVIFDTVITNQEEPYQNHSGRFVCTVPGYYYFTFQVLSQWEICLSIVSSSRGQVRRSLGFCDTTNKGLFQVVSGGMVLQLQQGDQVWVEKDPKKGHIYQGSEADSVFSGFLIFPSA
T1 sequence (P02746 28-253, chain 2 of 3): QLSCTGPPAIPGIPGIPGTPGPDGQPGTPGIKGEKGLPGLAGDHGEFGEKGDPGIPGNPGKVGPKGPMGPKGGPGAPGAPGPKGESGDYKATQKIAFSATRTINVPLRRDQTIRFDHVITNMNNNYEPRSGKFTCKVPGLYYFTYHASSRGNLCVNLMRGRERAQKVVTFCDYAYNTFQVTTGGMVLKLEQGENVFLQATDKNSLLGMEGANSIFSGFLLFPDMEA
T1 sequence (P02747 29-245, chain 3 of 3): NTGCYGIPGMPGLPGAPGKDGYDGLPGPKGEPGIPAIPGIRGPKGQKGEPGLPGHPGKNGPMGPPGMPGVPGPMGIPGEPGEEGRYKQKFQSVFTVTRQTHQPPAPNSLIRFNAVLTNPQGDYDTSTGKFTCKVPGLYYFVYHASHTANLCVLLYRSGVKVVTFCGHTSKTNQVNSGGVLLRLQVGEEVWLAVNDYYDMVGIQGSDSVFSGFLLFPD

B1: soluble CR1 (sCR1), full-length ectodomain of complement receptor-type 1 (receptor)
chain: not shown
notes: complement receptor-type 1 (CR1, CD35), human, soluble full-length ectodomain; also called full-length sCR1; source: a gift from Henry Marsh, Celdex Pharmaceuticals
**Q.** With B1 as the binder, how does the Kd read?
**A.** 8 ± 1 µM
